Measured values: publication doi:10.1101/2022.05.17.492379

T1: Esrrb (Mus musculus, UniProt Q61539 1-433)
T1 sequence: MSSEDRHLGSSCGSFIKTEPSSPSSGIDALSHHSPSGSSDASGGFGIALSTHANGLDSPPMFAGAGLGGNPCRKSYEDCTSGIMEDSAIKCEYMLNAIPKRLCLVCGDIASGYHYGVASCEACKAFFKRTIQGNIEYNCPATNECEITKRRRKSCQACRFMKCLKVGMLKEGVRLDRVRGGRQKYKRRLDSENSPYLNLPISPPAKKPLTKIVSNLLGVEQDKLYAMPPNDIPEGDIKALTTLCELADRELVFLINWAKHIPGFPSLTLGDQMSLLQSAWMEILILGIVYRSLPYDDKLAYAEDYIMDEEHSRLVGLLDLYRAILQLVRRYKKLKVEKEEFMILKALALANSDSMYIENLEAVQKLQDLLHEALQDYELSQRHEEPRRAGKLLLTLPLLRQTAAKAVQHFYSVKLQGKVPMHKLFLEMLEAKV

B1: Nr5a2 motif DNA (dsDNA)
DNA 1: GAGAGAGTCAAGGCCATGGCTCACT
DNA 2: AGTGAGCCATGGCCTTGACTCTCTC
B2: Esrrb motif DNA (dsDNA)
DNA 1: GAGAGAGTCAAGGTCATGGCTCACT
DNA 2: AGTGAGCCATGACCTTGACTCTCTC

Legend:
Esrrb = molecular target: T1, Esrrb; experiment: fluorescence polarization
Nr5a2 = Nr5a2 (Mus musculus, UniProt P45448 1-560); experiment: fluorescence polarization
Nr5a2, sequence (P45448 whole entry): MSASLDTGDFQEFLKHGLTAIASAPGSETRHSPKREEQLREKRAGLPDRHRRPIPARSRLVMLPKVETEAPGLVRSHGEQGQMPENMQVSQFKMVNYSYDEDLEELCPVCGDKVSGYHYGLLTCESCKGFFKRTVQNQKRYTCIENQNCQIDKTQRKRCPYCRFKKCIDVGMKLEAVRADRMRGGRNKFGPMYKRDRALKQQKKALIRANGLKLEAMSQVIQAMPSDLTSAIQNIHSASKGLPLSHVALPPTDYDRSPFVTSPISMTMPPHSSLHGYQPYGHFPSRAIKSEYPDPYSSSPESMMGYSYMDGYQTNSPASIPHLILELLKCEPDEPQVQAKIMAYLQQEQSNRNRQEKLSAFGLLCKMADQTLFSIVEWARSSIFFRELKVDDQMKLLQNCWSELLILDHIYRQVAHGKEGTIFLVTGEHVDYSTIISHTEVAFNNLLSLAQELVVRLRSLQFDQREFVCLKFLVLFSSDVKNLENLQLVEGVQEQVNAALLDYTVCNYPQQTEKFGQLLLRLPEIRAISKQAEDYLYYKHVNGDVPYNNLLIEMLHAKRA

Row | Binder | Kd (Esrrb) | Kd (Nr5a2)
1 | B1 | 626 ± 133 nM | 5.62 ± 1 nM
2 | B2 | 8.56 ± 0.69 nM | 6.49 ± 0.35 nM
